Several values for one entry are separate records, joined by “and”; a condition that tells them apart may be missing. Equal values may be shown once.

The target of assay [1] is human folate receptor alpha (FRA) (human) (UniProt P15328). Briefly: flow cytometry on SK-OV-3 cells, secondary antibody alone (background). (A flow cytometer gives signals particle by particle.)
Assay [2] shares this target. Nature of the assay: flow cytometry on OVCAR-3B cells, secondary antibody alone (background).
Assay [3] shares this target. Briefly: flow cytometry on NCI-H2110 cells, secondary antibody alone (background).
Assay [4] shares this target. Briefly: flow cytometry on NCI-H292 cells, secondary antibody alone (background).
Assay [5] has the same target. Nature of the assay: flow cytometry on NCI-H292 cells, 10 µg/mL.
Assay [6] has the same target. Briefly: flow cytometry on OVCAR-3 cells, 10 µg/mL.
For assay [7] the target is unchanged. Nature of the assay: flow cytometry on SK-OV-3 cells, 10 µg/mL.
Assay [8] has the same target. Nature of the assay: flow cytometry on NCI-H2110 cells, 10 µg/mL.

human folate receptor alpha (FRA) (human), sequence (P15328 25-234 limits assumed): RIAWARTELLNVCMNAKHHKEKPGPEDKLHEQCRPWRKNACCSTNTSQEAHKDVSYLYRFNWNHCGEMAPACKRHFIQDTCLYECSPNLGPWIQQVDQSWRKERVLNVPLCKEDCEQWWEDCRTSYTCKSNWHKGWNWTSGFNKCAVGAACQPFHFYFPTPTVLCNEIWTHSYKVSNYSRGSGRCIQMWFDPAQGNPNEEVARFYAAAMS

In the case of “goat F(ab')2-anti-human IgG (H+L)-RPE or goat anti-human IgG-RPE (antibody)”, the MFI in assay [1] is 6 MFI and 5 MFI; in assay [2], 5 MFI; in assay [3], 5 MFI; in assay [4], 6 MFI.

On to isotype control antibody human IgG, for which the MFI is 6 MFI in assay [5], 7 MFI in assay [6], 6 MFI in assay [7] and 5 MFI in assay [8].

For the origin of these results see patent US20160015827A1.
